Reference: publication PMC4335406

Tests used:
[1] = molecular target: DsLOV, short LOV protein from Dinoroseobacter shibae DFL12T (Dinoroseobacter shibae DFL12T); assay: SEC; analytical size-exclusion chromatography; data not shown; conditions not given
[2] = molecular target: DsLOV, short LOV protein from Dinoroseobacter shibae DFL12T (Dinoroseobacter shibae DFL12T); assay: small angle X-ray scattering (SAXS); 7.2 and 14.8 mg/ml DsLOV in 10 mM NaH2PO4, 300 mM NaCl, pH 8.0, 10°C; beamline BM29, ESRF

- stoichiometry N [1]: 2
- stoichiometry N [2]: 2
Substance: DsLOV, short LOV protein from Dinoroseobacter shibae DFL12T (natural protein)
